Assay results: FireProtDB (doi:10.1021/bi00052a024)

Conditions: Katsuwonus pelamis, pH 7.5, 25 °C, GdnHCl, CD, Tris 20 mM, NaCl 40 mM, reversible: yes

Chain of Cytochrome c K74F, P00025 (P00025 whole entry K74F): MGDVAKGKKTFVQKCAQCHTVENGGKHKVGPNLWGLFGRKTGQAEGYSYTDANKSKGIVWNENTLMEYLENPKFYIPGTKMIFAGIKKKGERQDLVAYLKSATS
Chain of Cytochrome c K74W, P00025 (P00025 whole entry K74W): as the sequence (P00025 whole entry K74F) above, with F74W counted along it
Chain of Cytochrome c K74Y, P00025 (P00025 whole entry K74Y): as the sequence (P00025 whole entry K74F) above, with F74Y counted along it
Chain of Cytochrome c wild type, P00025 (P00025 whole entry): as the sequence (P00025 whole entry K74F) above, with F74K counted along it
Chain of Cytochrome c K74M, P00025 (P00025 whole entry K74M): as the sequence (P00025 whole entry K74F) above, with F74M counted along it

Substance | ddG of mutation (higher = less stable) (structure 1CYC) | denaturant m value (structure 1CYC) | denaturant midpoint (higher = more stable) (structure 1CYC) | unfolding free energy (structure 1CYC) | denaturant m value | denaturant midpoint (higher = more stable) | unfolding free energy
Cytochrome c K74F, P00025 | 1.15 kcal/mol | 4.44 kcal/mol/M | 1 M | 4.51 kcal/mol | – | – | –
Cytochrome c K74M, P00025 | 1 kcal/mol | 4.43 kcal/mol/M | 1 M | 4.66 kcal/mol | – | – | –
Cytochrome c K74W, P00025 | 1.43 kcal/mol | 4.16 kcal/mol/M | 1 M | 4.23 kcal/mol | – | – | –
Cytochrome c K74Y, P00025 | 1.05 kcal/mol | 4.62 kcal/mol/M | 1 M | 4.61 kcal/mol | – | – | –
Cytochrome c wild type, P00025 | – | – | – | – | 4.87 kcal/mol/M | 1.16 M | 5.66 kcal/mol
